The series deals with T1, NCCc1c[nH]c2ccc(O)cc12.
T1 construct: wild-type hSERT expressed in HEK293S cells
Kind of series: cells, lysate or membranes. In kind it is cell-based, Homo sapiens. To be noted: Na+ and Cl-.

We go through 1 substance from publication PMC4687910, “Thermostabilization of the Human Serotonin Transporter in an Antidepressant-Bound Conformation” (PLoS ONE, 2015).

For “human serotonin transporter (hSERT) (Homo sapiens)”, the Km worked out at 3.4 µM.

As usually defined, the Km is the substrate concentration at which the rate is half of its maximum.
